Data taken from patent publication US9688764B2, “Methods of treating breast cancer by administering anti-human prolactin receptor (PRLR) antibodies” (REGENERON PHARMACEUTICALS, INC., priority 2013, dated 2017).

T1: PRLR-expressing cells (T47D) (Homo sapiens, UniProt P16471)
T1 construct: a native PRLR expressing cell line (T47D); endogenous in cells; host or cells: T47D
T1 sequence (P16471 25-622): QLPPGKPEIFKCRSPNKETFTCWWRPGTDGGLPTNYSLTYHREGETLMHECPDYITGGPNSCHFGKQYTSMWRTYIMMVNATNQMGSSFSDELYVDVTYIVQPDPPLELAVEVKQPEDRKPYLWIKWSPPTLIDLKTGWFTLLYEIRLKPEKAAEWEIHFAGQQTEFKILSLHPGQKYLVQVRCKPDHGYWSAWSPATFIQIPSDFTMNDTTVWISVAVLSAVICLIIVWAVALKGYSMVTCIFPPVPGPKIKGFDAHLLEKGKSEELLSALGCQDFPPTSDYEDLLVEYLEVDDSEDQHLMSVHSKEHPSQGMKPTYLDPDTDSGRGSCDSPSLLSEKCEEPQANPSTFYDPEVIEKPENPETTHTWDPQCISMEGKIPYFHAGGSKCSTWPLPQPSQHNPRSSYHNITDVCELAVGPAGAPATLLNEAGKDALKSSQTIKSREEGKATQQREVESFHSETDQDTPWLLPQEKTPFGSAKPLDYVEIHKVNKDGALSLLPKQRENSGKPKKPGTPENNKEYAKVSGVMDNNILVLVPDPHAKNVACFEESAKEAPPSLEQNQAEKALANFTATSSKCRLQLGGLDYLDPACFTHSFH

T2: HEK293/hPRLR (Homo sapiens, UniProt P16471)
T2 construct: HA; expressed in transfected cells; host or cells: HEK293
T2 sequence (P16471 25-622): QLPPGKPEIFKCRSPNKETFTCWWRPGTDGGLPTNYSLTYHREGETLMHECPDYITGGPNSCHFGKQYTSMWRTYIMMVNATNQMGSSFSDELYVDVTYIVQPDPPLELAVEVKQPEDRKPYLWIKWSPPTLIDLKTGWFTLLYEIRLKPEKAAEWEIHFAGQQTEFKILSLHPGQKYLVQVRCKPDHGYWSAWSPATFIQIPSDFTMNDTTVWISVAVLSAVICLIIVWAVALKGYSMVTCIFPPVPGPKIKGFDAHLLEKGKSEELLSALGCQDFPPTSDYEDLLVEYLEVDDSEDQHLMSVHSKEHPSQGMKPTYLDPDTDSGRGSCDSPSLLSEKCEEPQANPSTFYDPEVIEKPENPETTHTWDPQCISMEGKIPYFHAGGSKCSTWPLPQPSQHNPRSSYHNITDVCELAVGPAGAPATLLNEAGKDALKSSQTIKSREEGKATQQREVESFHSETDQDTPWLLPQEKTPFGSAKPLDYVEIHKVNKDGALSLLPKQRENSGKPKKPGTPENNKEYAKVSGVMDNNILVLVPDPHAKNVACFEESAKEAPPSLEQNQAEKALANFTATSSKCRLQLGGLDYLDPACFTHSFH

T3: T47D (native PRLR expressing cell line) (Homo sapiens, UniProt P16471)
T3 construct: a native PRLR expressing cell line (T47D); endogenous in cells; host or cells: T47D
T3 sequence (P16471 25-622): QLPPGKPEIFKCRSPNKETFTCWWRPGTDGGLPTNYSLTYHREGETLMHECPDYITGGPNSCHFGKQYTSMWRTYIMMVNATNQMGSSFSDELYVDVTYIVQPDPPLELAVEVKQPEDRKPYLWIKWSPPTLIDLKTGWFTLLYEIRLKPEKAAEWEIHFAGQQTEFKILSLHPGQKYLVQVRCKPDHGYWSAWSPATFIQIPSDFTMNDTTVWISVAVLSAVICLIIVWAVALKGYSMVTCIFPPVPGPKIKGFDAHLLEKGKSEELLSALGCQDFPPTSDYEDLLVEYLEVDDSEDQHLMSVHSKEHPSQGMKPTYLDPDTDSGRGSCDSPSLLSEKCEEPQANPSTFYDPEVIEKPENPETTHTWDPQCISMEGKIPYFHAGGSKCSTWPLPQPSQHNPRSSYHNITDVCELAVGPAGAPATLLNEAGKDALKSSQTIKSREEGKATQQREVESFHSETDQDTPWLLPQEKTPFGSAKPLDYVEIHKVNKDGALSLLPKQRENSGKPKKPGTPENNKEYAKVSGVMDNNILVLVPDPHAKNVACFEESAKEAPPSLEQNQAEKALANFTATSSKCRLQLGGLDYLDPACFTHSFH

T4: HEK293/mPRLR (Mus musculus, UniProt Q08501)
T4 construct: HA; expressed in transfected cells; host or cells: HEK293
T4 sequence (Q08501 20-608): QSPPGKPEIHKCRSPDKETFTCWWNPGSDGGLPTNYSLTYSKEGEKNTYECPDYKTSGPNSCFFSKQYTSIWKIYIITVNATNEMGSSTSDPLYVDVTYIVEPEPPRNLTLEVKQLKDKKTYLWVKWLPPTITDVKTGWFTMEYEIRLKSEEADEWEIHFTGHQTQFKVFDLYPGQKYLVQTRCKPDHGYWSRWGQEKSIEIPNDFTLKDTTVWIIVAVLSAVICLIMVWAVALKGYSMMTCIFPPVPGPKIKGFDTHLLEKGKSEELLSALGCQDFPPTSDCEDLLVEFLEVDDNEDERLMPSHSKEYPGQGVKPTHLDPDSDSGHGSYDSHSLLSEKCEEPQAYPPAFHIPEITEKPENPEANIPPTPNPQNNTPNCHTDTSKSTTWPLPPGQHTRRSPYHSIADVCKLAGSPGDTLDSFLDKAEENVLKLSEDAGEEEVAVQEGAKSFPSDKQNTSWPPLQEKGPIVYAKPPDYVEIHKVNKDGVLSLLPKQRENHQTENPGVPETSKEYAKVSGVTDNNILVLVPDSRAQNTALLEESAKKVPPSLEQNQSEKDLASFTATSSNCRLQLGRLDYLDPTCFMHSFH


Experiments:
[1] = target: T1, PRLR-expressing cells (T47D); assay: Antibody binding and internalization by PRLR-expressing cells (imaging); format: cell-based; details: [mAb] (0.67 nM); for % Internalization relative to Control I: alexa488 intensity in intracellular vesicles, 1 h at 37° C.; for % Total Binding relative to Control I: whole cell alexa488 intensity at 37° C.
[2] = tested on: HEK293 (non-expressing parental cells); assay: FACS cell surface binding
Procedure, shortened: (§1)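 HEK293 lines stably expressing HA-tagged human, cynomolgus or mouse PRLR, native-expressing T47D and parental HEK293 tested by flow cytometry. Cells (1×10^5) stained with primary antibody 30 min on ice, then PE anti-human secondary; MFI expressed as fold over isotype control.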

[3] = target: T2, HEK293/hPRLR; assay: FACS cell surface binding
Procedure, shortened: as §1

[4] = target: T3, T47D (native PRLR expressing cell line); assay: FACS cell surface binding
Procedure, shortened: as §1

[5] = target: T4, HEK293/mPRLR; assay: FACS cell surface binding
Procedure, shortened: as §1

% Internalization relative to Control I [1] [%]	% Total Binding relative to Control I [1] [%]	FACS Cell Binding (Fold Above Background) [3] [Fold Above Background]	FACS Cell Binding (Fold Above Background) [4] [Fold Above Background]	FACS Cell Binding (Fold Above Background) [5] [Fold Above Background]	Molecule	FACS Cell Binding (Fold Above Background) [2] [Fold Above Background]
153.9	164.2	37	40	2	H1H6953N: human IgG1 Fc form of H1M6953N; anti-PRLR; HCVR/LCVR SEQ ID NOs 274/282 (antibody, V domains shown, human IgG1 Fc) VH: EVQLLESGGGLVQPGGTLRLSCAASGFTFSAYAMSWVRQAPGKGLEWVSSINVRAGDTYYADSVKGRFTISRDNSKNTLFLLMNSLRAEDTAAYYCAKARYSSNWGFDFWGQGTLVTVSS VL: DIVMTQSPDSLTVSLGARTTINCQSSQTILHSSNNHNYLAWYQQKPGLPPKLLIYWSSTRESGVPDRFSGSGSGTDFTLTISSLQAEDVAIYYCQQYSNTPYTFGQGTKLEIN	2
138.9	149.6	1	34	1	H1H6804P: anti-PRLR antibody, human IgG1 Fc; HCVR/LCVR SEQ ID NOs 242/250 (antibody, V domains shown, human IgG1 Fc) VH: QVTLKESGPVLVKPTQTLSLTCTVSGFSLSDAGMGVSWIRQPPGKALEWLAHIFSNDGKSYSTSLKSRLTISKDTSKRQVVLTMTNMDPVDTATYYCARIRTGTYSLYLDYWGQGTLVTVSS VL: DIQMTQSPSSLSASVGDRVTITCRASQSINSYLNWYQQKPGKAPKLLLYFASSLQSGVPSRFSGSGSGTDFTLTISSLQPEDFASYYCQESYSTPWTFGQGTKVEIK	1
